B1: TPTE2 peptide 92-107 (Phosphatidylinositol 3,4,5-trisphosphate 3-phosphatase TPTE2), 16-mer library wild type / TLN1 PTB (TLN1 Phosphotyrosine-binding (PTB) domain, residues 309-401) (parent complex)
chain 1: LADLIFTDSKLYIPLE
chain 2: GVSFFLVKEKMKGKNKLVPRLLGITKECVMRVDEKTKEVIQEWNLTNIKRWAASPKSFTLDFGDYQDGYYSVQTTEGEQIAQLIAGYIDIILK

Variants of: B1
Assay: proteomic peptide phage display deep mutational scan (ProP-PD DMS): M13 P8 16-mer library selected against immobilised GST-tagged bait for four days (rounds), NGS of the eluted pools per day and pseudo-replica; bait immobilised on MaxiSorp plates (10 µg), library pre-cleared on GST, 2 h binding at 4 °C, five washes; one round per day, days 1-4; value from days 2 and 3

Row | Variant | screen value
1 | chain 1 L15M | 0.00539 average fractional NGS count over selection days 2 and 3 (reads of this peptide / all reads for the bait, averaged over …
2 | chain 1 L15V | 0.0032 average fractional NGS count over selection days 2 and 3 (reads of this peptide / all reads for the bait, averaged over …
3 | chain 1 L15F | 0.000576 average fractional NGS count over selection days 2 and 3 (reads of this peptide / all reads for the bait, averaged over …
4 | chain 1 L15D | 0.000238 average fractional NGS count over selection days 2 and 3 (reads of this peptide / all reads for the bait, averaged over …
5 | chain 1 L15R | 0.0012 average fractional NGS count over selection days 2 and 3 (reads of this peptide / all reads for the bait, averaged over …
6 | chain 1 L15G | 0.000168 average fractional NGS count over selection days 2 and 3 (reads of this peptide / all reads for the bait, averaged over …
7 | chain 1 L15K | 0.000159 average fractional NGS count over selection days 2 and 3 (reads of this peptide / all reads for the bait, averaged over …
8 | chain 1 F6W | 0.000583 average fractional NGS count over selection days 2 and 3 (reads of this peptide / all reads for the bait, averaged over …
9 | chain 1 I13F | 0.000135 average fractional NGS count over selection days 2 and 3 (reads of this peptide / all reads for the bait, averaged over …
10 | chain 1 I13L | 0.000788 average fractional NGS count over selection days 2 and 3 (reads of this peptide / all reads for the bait, averaged over …
11 | chain 1 I13T | 0.000348 average fractional NGS count over selection days 2 and 3 (reads of this peptide / all reads for the bait, averaged over …
12 | chain 1 I13R | 0.00065 average fractional NGS count over selection days 2 and 3 (reads of this peptide / all reads for the bait, averaged over …
13 | chain 1 I13V | 0.00758 average fractional NGS count over selection days 2 and 3 (reads of this peptide / all reads for the bait, averaged over …
14 | chain 1 I13K | 0.0008 average fractional NGS count over selection days 2 and 3 (reads of this peptide / all reads for the bait, averaged over …
15 | chain 1 I13E | 0.000182 average fractional NGS count over selection days 2 and 3 (reads of this peptide / all reads for the bait, averaged over …
16 | chain 1 S9N | 0.00167 average fractional NGS count over selection days 2 and 3 (reads of this peptide / all reads for the bait, averaged over …
17 | chain 1 A2R | 0.00121 average fractional NGS count over selection days 2 and 3 (reads of this peptide / all reads for the bait, averaged over …
18 | chain 1 A2G | 0.00214 average fractional NGS count over selection days 2 and 3 (reads of this peptide / all reads for the bait, averaged over …
19 | chain 1 A2E | 0.000377 average fractional NGS count over selection days 2 and 3 (reads of this peptide / all reads for the bait, averaged over …
20 | chain 1 A2P | 0.000416 average fractional NGS count over selection days 2 and 3 (reads of this peptide / all reads for the bait, averaged over …
21 | chain 1 A2Q | 0.000351 average fractional NGS count over selection days 2 and 3 (reads of this peptide / all reads for the bait, averaged over …
22 | chain 1 A2H | 0.00143 average fractional NGS count over selection days 2 and 3 (reads of this peptide / all reads for the bait, averaged over …
23 | chain 1 A2M | 0.000697 average fractional NGS count over selection days 2 and 3 (reads of this peptide / all reads for the bait, averaged over …
24 | chain 1 A2Y | 0.00133 average fractional NGS count over selection days 2 and 3 (reads of this peptide / all reads for the bait, averaged over …
25 | chain 1 A2N | 0.000208 average fractional NGS count over selection days 2 and 3 (reads of this peptide / all reads for the bait, averaged over …

Row | Variant | screen value
26 | chain 1 A2S | 0.000833 average fractional NGS count over selection days 2 and 3 (reads of this peptide / all reads for the bait, averaged over …
27 | chain 1 A2D | 0.0012 average fractional NGS count over selection days 2 and 3 (reads of this peptide / all reads for the bait, averaged over …
28 | chain 1 A2I | 0.000259 average fractional NGS count over selection days 2 and 3 (reads of this peptide / all reads for the bait, averaged over …
29 | chain 1 A2T | 0.00695 average fractional NGS count over selection days 2 and 3 (reads of this peptide / all reads for the bait, averaged over …
30 | chain 1 A2K | 0.000711 average fractional NGS count over selection days 2 and 3 (reads of this peptide / all reads for the bait, averaged over …
31 | chain 1 P14G | 0.000463 average fractional NGS count over selection days 2 and 3 (reads of this peptide / all reads for the bait, averaged over …
32 | chain 1 P14W | 0.000152 average fractional NGS count over selection days 2 and 3 (reads of this peptide / all reads for the bait, averaged over …
33 | chain 1 K10Q | 0.00103 average fractional NGS count over selection days 2 and 3 (reads of this peptide / all reads for the bait, averaged over …
34 | chain 1 K10L | 0.000166 average fractional NGS count over selection days 2 and 3 (reads of this peptide / all reads for the bait, averaged over …
35 | chain 1 K10T | 0.000653 average fractional NGS count over selection days 2 and 3 (reads of this peptide / all reads for the bait, averaged over …
36 | chain 1 K10S | 0.000449 average fractional NGS count over selection days 2 and 3 (reads of this peptide / all reads for the bait, averaged over …
37 | chain 1 K10A | 0.0017 average fractional NGS count over selection days 2 and 3 (reads of this peptide / all reads for the bait, averaged over …
38 | chain 1 K10N | 0.000537 average fractional NGS count over selection days 2 and 3 (reads of this peptide / all reads for the bait, averaged over …
39 | chain 1 K10R | 0.00219 average fractional NGS count over selection days 2 and 3 (reads of this peptide / all reads for the bait, averaged over …
40 | chain 1 K10F | 0.000223 average fractional NGS count over selection days 2 and 3 (reads of this peptide / all reads for the bait, averaged over …
41 | chain 1 K10M | 0.0107 average fractional NGS count over selection days 2 and 3 (reads of this peptide / all reads for the bait, averaged over …
42 | chain 1 K10P | 0.000281 average fractional NGS count over selection days 2 and 3 (reads of this peptide / all reads for the bait, averaged over …
43 | chain 1 K10G | 0.000514 average fractional NGS count over selection days 2 and 3 (reads of this peptide / all reads for the bait, averaged over …
44 | chain 1 K10Y | 0.00128 average fractional NGS count over selection days 2 and 3 (reads of this peptide / all reads for the bait, averaged over …
45 | chain 1 K10E | 0.00277 average fractional NGS count over selection days 2 and 3 (reads of this peptide / all reads for the bait, averaged over …
46 | chain 1 K10I | 0.000133 average fractional NGS count over selection days 2 and 3 (reads of this peptide / all reads for the bait, averaged over …
47 | chain 1 K10H | 0.00033 average fractional NGS count over selection days 2 and 3 (reads of this peptide / all reads for the bait, averaged over …
48 | chain 1 L4P | 0.000281 average fractional NGS count over selection days 2 and 3 (reads of this peptide / all reads for the bait, averaged over …
49 | chain 1 L4D | 0.0012 average fractional NGS count over selection days 2 and 3 (reads of this peptide / all reads for the bait, averaged over …
50 | chain 1 L4M | 0.000697 average fractional NGS count over selection days 2 and 3 (reads of this peptide / all reads for the bait, averaged over …

Row | Variant | screen value
51 | chain 1 L4F | 0.000915 average fractional NGS count over selection days 2 and 3 (reads of this peptide / all reads for the bait, averaged over …
52 | chain 1 L4H | 0.000467 average fractional NGS count over selection days 2 and 3 (reads of this peptide / all reads for the bait, averaged over …
53 | chain 1 L4I | 0.00221 average fractional NGS count over selection days 2 and 3 (reads of this peptide / all reads for the bait, averaged over …
54 | chain 1 L4Q | 0.000755 average fractional NGS count over selection days 2 and 3 (reads of this peptide / all reads for the bait, averaged over …
55 | chain 1 L4E | 0.000131 average fractional NGS count over selection days 2 and 3 (reads of this peptide / all reads for the bait, averaged over …
56 | chain 1 L4Y | 0.00693 average fractional NGS count over selection days 2 and 3 (reads of this peptide / all reads for the bait, averaged over …
57 | chain 1 L4A | 0.000153 average fractional NGS count over selection days 2 and 3 (reads of this peptide / all reads for the bait, averaged over …
58 | chain 1 L4S | 0.00023 average fractional NGS count over selection days 2 and 3 (reads of this peptide / all reads for the bait, averaged over …
59 | chain 1 L4V | 0.0013 average fractional NGS count over selection days 2 and 3 (reads of this peptide / all reads for the bait, averaged over …
60 | chain 1 L4T | 0.00113 average fractional NGS count over selection days 2 and 3 (reads of this peptide / all reads for the bait, averaged over …
61 | chain 1 L4G | 0.000192 average fractional NGS count over selection days 2 and 3 (reads of this peptide / all reads for the bait, averaged over …
62 | chain 1 D3S | 0.000257 average fractional NGS count over selection days 2 and 3 (reads of this peptide / all reads for the bait, averaged over …
63 | chain 1 D3Q | 0.000216 average fractional NGS count over selection days 2 and 3 (reads of this peptide / all reads for the bait, averaged over …
64 | chain 1 D3P | 0.000181 average fractional NGS count over selection days 2 and 3 (reads of this peptide / all reads for the bait, averaged over …
65 | chain 1 D3T | 0.00148 average fractional NGS count over selection days 2 and 3 (reads of this peptide / all reads for the bait, averaged over …
66 | chain 1 D3G | 0.000214 average fractional NGS count over selection days 2 and 3 (reads of this peptide / all reads for the bait, averaged over …
67 | chain 1 D3N | 0.000465 average fractional NGS count over selection days 2 and 3 (reads of this peptide / all reads for the bait, averaged over …
68 | chain 1 D3E | 0.000596 average fractional NGS count over selection days 2 and 3 (reads of this peptide / all reads for the bait, averaged over …
69 | chain 1 L11V | 0.00254 average fractional NGS count over selection days 2 and 3 (reads of this peptide / all reads for the bait, averaged over …
70 | chain 1 L11M | 0.000677 average fractional NGS count over selection days 2 and 3 (reads of this peptide / all reads for the bait, averaged over …
71 | chain 1 L11G | 0.000473 average fractional NGS count over selection days 2 and 3 (reads of this peptide / all reads for the bait, averaged over …
72 | chain 1 L11I | 0.00106 average fractional NGS count over selection days 2 and 3 (reads of this peptide / all reads for the bait, averaged over …
73 | chain 1 L11H | 0.000165 average fractional NGS count over selection days 2 and 3 (reads of this peptide / all reads for the bait, averaged over …
74 | chain 1 Y12F | 0.00012 average fractional NGS count over selection days 2 and 3 (reads of this peptide / all reads for the bait, averaged over …
75 | chain 1 Y12W | 0.000296 average fractional NGS count over selection days 2 and 3 (reads of this peptide / all reads for the bait, averaged over …
